Results reported in US11833164B2, “Methods of treating Fabry disease in patients having a mutation in the GLA gene” (Amicus Therapeutics, Inc., priority 2019, dated 2023).

B1: V376G (protein)
chain: MQLRNPELHLGCALALRFLALVSWDIPGARALDNGLARTPTMGWLHWERFMCNLDCQEEPDSCISEKLFMEMAELMVSEGWKDAGYEYLCIDDCWMAPQRDSEGRLQADPQRFPHGIRQLANYVHSKGLKLGIYADVGNKTCAGFPGSFGYYDIDAQTFADWGVDLLKFDGCYCDSLENLADGYKHMSLALNRTGRSIVYSCEWPLYMWPFQKPNYTEIRQYCNHWRNFADIDDSWKSIKSILDWTSFNQERIVDVAGPGGWNDPDMLVIGNFGLSWNQQVTQMALWAIMAAPLFMSNDLRHISPQAKALLQDKDVIAINQDPLGKQGYQLRQGDNFEVWERPLSGLAWAVAMINRQEIGGPRSYTIAVASLGKGGACNPACFITQLLPVKRKLGFYEWTSRLRSHINPTGTVLLQLENTMQMSLKDLL
B2: A377G (protein)
chain: MQLRNPELHLGCALALRFLALVSWDIPGARALDNGLARTPTMGWLHWERFMCNLDCQEEPDSCISEKLFMEMAELMVSEGWKDAGYEYLCIDDCWMAPQRDSEGRLQADPQRFPHGIRQLANYVHSKGLKLGIYADVGNKTCAGFPGSFGYYDIDAQTFADWGVDLLKFDGCYCDSLENLADGYKHMSLALNRTGRSIVYSCEWPLYMWPFQKPNYTEIRQYCNHWRNFADIDDSWKSIKSILDWTSFNQERIVDVAGPGGWNDPDMLVIGNFGLSWNQQVTQMALWAIMAAPLFMSNDLRHISPQAKALLQDKDVIAINQDPLGKQGYQLRQGDNFEVWERPLSGLAWAVAMINRQEIGGPRSYTIAVASLGKGVGCNPACFITQLLPVKRKLGFYEWTSRLRSHINPTGTVLLQLENTMQMSLKDLL
B3: A377P (protein)
chain: MQLRNPELHLGCALALRFLALVSWDIPGARALDNGLARTPTMGWLHWERFMCNLDCQEEPDSCISEKLFMEMAELMVSEGWKDAGYEYLCIDDCWMAPQRDSEGRLQADPQRFPHGIRQLANYVHSKGLKLGIYADVGNKTCAGFPGSFGYYDIDAQTFADWGVDLLKFDGCYCDSLENLADGYKHMSLALNRTGRSIVYSCEWPLYMWPFQKPNYTEIRQYCNHWRNFADIDDSWKSIKSILDWTSFNQERIVDVAGPGGWNDPDMLVIGNFGLSWNQQVTQMALWAIMAAPLFMSNDLRHISPQAKALLQDKDVIAINQDPLGKQGYQLRQGDNFEVWERPLSGLAWAVAMINRQEIGGPRSYTIAVASLGKGVPCNPACFITQLLPVKRKLGFYEWTSRLRSHINPTGTVLLQLENTMQMSLKDLL
B4: V376M (protein)
chain: MQLRNPELHLGCALALRFLALVSWDIPGARALDNGLARTPTMGWLHWERFMCNLDCQEEPDSCISEKLFMEMAELMVSEGWKDAGYEYLCIDDCWMAPQRDSEGRLQADPQRFPHGIRQLANYVHSKGLKLGIYADVGNKTCAGFPGSFGYYDIDAQTFADWGVDLLKFDGCYCDSLENLADGYKHMSLALNRTGRSIVYSCEWPLYMWPFQKPNYTEIRQYCNHWRNFADIDDSWKSIKSILDWTSFNQERIVDVAGPGGWNDPDMLVIGNFGLSWNQQVTQMALWAIMAAPLFMSNDLRHISPQAKALLQDKDVIAINQDPLGKQGYQLRQGDNFEVWERPLSGLAWAVAMINRQEIGGPRSYTIAVASLGKGMACNPACFITQLLPVKRKLGFYEWTSRLRSHINPTGTVLLQLENTMQMSLKDLL
B5: A377S (protein)
chain: MQLRNPELHLGCALALRFLALVSWDIPGARALDNGLARTPTMGWLHWERFMCNLDCQEEPDSCISEKLFMEMAELMVSEGWKDAGYEYLCIDDCWMAPQRDSEGRLQADPQRFPHGIRQLANYVHSKGLKLGIYADVGNKTCAGFPGSFGYYDIDAQTFADWGVDLLKFDGCYCDSLENLADGYKHMSLALNRTGRSIVYSCEWPLYMWPFQKPNYTEIRQYCNHWRNFADIDDSWKSIKSILDWTSFNQERIVDVAGPGGWNDPDMLVIGNFGLSWNQQVTQMALWAIMAAPLFMSNDLRHISPQAKALLQDKDVIAINQDPLGKQGYQLRQGDNFEVWERPLSGLAWAVAMINRQEIGGPRSYTIAVASLGKGVSCNPACFITQLLPVKRKLGFYEWTSRLRSHINPTGTVLLQLENTMQMSLKDLL
B6: V376L (protein)
chain: MQLRNPELHLGCALALRFLALVSWDIPGARALDNGLARTPTMGWLHWERFMCNLDCQEEPDSCISEKLFMEMAELMVSEGWKDAGYEYLCIDDCWMAPQRDSEGRLQADPQRFPHGIRQLANYVHSKGLKLGIYADVGNKTCAGFPGSFGYYDIDAQTFADWGVDLLKFDGCYCDSLENLADGYKHMSLALNRTGRSIVYSCEWPLYMWPFQKPNYTEIRQYCNHWRNFADIDDSWKSIKSILDWTSFNQERIVDVAGPGGWNDPDMLVIGNFGLSWNQQVTQMALWAIMAAPLFMSNDLRHISPQAKALLQDKDVIAINQDPLGKQGYQLRQGDNFEVWERPLSGLAWAVAMINRQEIGGPRSYTIAVASLGKGLACNPACFITQLLPVKRKLGFYEWTSRLRSHINPTGTVLLQLENTMQMSLKDLL

Legend:
[1] = system: active site of wild-type α-Gal A and specific mutant forms of α-Gal A; conditions: selective and reversible binding; cited from earlier work
[2] = system: mutant form of α-Gal A expressed in HEK-293 cells; assay: HEK assay (GLP HEK / Migalastat Amenability Assay): α-Gal A activity in lysates of transiently transfected HEK-293 cells incubated with or without 10 μM migalastat; format: cell-based, human; conditions: for Absolute increase (% WT) / Relative increase: 10 μM migalastat versus baseline; for Baseline α-Gal A activity (% WT): absence of migalastat; for Baseline α-Gal A activity (% WT) / 10 μM migalastat α-Gal A activity (% WT): percentage of baseline wild-type α-Gal A activity; for Baseline α-Gal A activity (% WT) / Baseline α-Gal A activity / 10 μM migalastat α-Gal A activity / 10 μM migalastat α-Gal A activity (% WT): mean ± SEM; for Baseline α-Gal A activity / 10 μM migalastat α-Gal A activity: lysates of HEK-293 cells transiently transfected with the mutant form; for Baseline α-Gal A activity: incubated 5 days in absence of migalastat; for 10 μM migalastat α-Gal A activity: incubated 5 days with 10 μM migalastat; for 10 μM migalastat α-Gal A activity (% WT): with 10 μM migalastat
How it was run: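 Activity reported as 4-MU released (nmol/mg/hr), mean±SEM, from lysates of transiently transfected HEK-293 cells expressing mutant α-Gal A, cultured with or without 10 μM migalastat.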

Molecule	binding to the active site of α-Gal A [1]	in vitro response to incubation with migalastat (amenability criteria) ([2]; novel α-Gal A mutations listed in Table 2, HEK-293 lysates, 10 μM migalastat, 5 days)	Absolute increase (% WT) [2] [% WT]	Relative increase [2]	Baseline α-Gal A activity (% WT) [2] [% WT]	Baseline α-Gal A activity [2] [nmol/mg/h]	10 μM migalastat α-Gal A activity [2] [nmol/mg/h]	10 μM migalastat α-Gal A activity (% WT) ([2]; 5 days)
OC[C@H]1NC[C@H](O)[C@@H](O)[C@H]1O [migalastat, (2R,3S,4R,5S)-2-(hydroxymethyl) piperdine-3,4,5-triol, reference compound]	high affinity	met amenability criteria						
B1			28.9	1.3	93.9 ± 4.6	33903 ± 2255	44774 ± 2982	122.9 ± 5.6
B2			16.1	1.2	71.6 ± 2.5	26583 ± 1072	32517 ± 981	87.7 ± 2.3
B3			17.2	1.3	59.4 ± 2.6	21842 ± 930	28189 ± 1292	76.6 ± 3.5
B4			20.1	1.3	79.3 ± 2.7	27547 ± 1431	34563 ± 1762	99.4 ± 3.2
B5			13.7	1.3	48.1 ± 2.3	17737 ± 860	22793 ± 999	61.8 ± 2.7
B6			19.9	1.3	82.4 ± 3.4	27275 ± 1181	34152 ± 1845	102.3 ± 4.2
